Six variants from IntAct's records for PubMed 21532587 can be followed below.

The labels stand for the following.
B1: Casein kinase I homolog HRR25 (Saccharomyces cerevisiae), P29295 (parent)
chain: MDLRVGRKFRIGRKIGSGSFGDIYHGTNLISGEEVAIKLESIRSRHPQLDYESRVYRYLSGGVGIPFIRWFGREGEYNAMVIDLLGPSLEDLFNYCHRRFSFKTVIMLALQMFCRIQYIHGRSFIHRDIKPDNFLMGVGRRGSTVHVIDFGLSKKYRDFNTHRHIPYRENKSLTGTARYASVNTHLGIEQSRRDDLESLGYVLIYFCKGSLPWQGLKATTKKQKYDRIMEKKLNVSVETLCSGLPLEFQEYMAYCKNLKFDEKPDYLFLARLFKDLSIKLEYHNDHLFDWTMLRYTKAMVEKQRDLLIEKGDLNANSNAASASNSTDNKSETFNKIKLLAMKKFPTHFHYYKNEDKHNPSPEEIKQQTILNNNAASSLPEELLNALDKGMENLRQQQPQQQVQSSQPQPQPQQLQQQPNGQRPNYYPEPLLQQQQRDSQEQQQQVPMATTRATQYPPQINSNNFNTNQASVPPQMRSNPQQPPQDKPAGQSIWL
partner: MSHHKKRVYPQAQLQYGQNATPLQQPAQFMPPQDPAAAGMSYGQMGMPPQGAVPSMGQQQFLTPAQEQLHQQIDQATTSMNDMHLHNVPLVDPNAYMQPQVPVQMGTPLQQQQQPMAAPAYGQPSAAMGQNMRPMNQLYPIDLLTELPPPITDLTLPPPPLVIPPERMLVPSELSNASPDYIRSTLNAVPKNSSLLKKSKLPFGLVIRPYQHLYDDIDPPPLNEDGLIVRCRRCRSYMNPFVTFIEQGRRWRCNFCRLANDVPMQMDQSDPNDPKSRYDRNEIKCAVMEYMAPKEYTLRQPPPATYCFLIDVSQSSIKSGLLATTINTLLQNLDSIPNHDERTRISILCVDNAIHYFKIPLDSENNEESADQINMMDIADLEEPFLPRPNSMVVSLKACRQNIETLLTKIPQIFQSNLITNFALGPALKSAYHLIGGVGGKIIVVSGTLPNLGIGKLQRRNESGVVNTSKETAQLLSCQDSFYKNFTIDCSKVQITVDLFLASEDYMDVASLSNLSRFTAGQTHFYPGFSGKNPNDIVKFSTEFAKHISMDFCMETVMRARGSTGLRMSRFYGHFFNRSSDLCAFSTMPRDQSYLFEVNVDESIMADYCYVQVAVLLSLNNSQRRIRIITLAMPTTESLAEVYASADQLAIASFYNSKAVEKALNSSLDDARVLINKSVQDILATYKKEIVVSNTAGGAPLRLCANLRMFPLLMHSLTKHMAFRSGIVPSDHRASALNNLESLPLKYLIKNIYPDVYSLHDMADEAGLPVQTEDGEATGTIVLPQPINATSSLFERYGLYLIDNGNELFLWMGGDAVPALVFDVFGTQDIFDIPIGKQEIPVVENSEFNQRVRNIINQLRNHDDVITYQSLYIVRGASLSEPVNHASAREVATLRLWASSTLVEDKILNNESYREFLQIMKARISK
B2: Casein kinase I homolog HRR25 (Saccharomyces cerevisiae), P29295 (parent)
chain: B1 chain
partner: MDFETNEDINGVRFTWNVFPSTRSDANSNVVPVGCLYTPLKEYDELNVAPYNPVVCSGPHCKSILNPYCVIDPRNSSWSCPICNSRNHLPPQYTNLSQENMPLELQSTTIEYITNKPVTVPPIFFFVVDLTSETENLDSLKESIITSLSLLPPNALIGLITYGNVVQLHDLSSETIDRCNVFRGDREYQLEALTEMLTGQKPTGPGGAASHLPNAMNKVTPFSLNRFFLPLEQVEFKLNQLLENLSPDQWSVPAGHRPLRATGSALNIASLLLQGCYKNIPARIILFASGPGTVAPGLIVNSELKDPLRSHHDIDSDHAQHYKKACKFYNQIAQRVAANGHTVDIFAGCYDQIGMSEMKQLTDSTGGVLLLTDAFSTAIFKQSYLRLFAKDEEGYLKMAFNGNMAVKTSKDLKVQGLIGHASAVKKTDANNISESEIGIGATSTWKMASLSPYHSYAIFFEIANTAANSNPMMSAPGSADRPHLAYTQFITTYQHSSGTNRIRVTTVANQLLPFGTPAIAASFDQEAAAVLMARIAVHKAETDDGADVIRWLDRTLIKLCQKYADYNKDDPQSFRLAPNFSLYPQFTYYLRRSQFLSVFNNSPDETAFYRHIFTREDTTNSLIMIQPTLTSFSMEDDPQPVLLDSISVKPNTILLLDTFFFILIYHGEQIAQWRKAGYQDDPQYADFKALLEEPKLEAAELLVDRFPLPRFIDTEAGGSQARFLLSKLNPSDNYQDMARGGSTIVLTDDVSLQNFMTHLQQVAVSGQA
B3: Protein transport protein SEC23 (Saccharomyces cerevisiae), P15303 (parent)
chain: B2 partner
partner: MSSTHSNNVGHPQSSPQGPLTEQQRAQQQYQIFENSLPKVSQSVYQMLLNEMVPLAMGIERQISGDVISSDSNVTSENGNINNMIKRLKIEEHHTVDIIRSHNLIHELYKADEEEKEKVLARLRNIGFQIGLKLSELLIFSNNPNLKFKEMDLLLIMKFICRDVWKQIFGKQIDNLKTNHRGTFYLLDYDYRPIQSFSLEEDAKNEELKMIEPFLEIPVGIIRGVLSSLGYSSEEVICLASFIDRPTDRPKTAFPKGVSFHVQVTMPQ
B4: Protein transport protein SEC23 (Saccharomyces cerevisiae), P15303 (parent)
chain: B2 partner

Variants of B1 are the subject of the first assay. The note with it: with sec24_yeast SEC24, P40482.
Take MDLRVGRKFRIGRKIGSGSFGDIYHGTNLISGEEVAIALESIRSRHPQLDYESRVYRYLSGGVGIPFIRWFGREGEYNAMVIDLLGPSLEDLFNYCHRRFSFKTVIMLALQMFCRIQYIHGRSFIHRDIKPDNFLMGVGRRGSTVHVIDFGLSKKYRDFNTHRHIPYRENKSLTGTARYASVNTHLGIEQSRRDDLESLGYVLIYFCKGSLPWQGLKATTKKQKYDRIMEKKLNVSVETLCSGLPLEFQEYMAYCKNLKFDEKPDYLFLARLFKDLSIKLEYHNDHLFDWTMLRYTKAMVEKQRDLLIEKGDLNANSNAASASNSTDNKSETFNKIKLLAMKKFPTHFHYYKNEDKHNPSPEEIKQQTILNNNAASSLPEELLNALDKGMENLRQQQPQQQVQSSQPQPQPQQLQQQPNGQRPNYYPEPLLQQQQRDSQEQQQQVPMATTRATQYPPQINSNNFNTNQASVPPQMRSNPQQPPQDKPAGQSIWL [K38A]: the “effect of a mutation on the interaction” value is on record as “disrupting interaction”.

In another assay the parent is B2. The conditions noted are these: with sec23_yeast SEC23, P15303.
As to MDLRVGRKFRIGRKIGSGSFGDIYHGTNLISGEEVAIALESIRSRHPQLDYESRVYRYLSGGVGIPFIRWFGREGEYNAMVIDLLGPSLEDLFNYCHRRFSFKTVIMLALQMFCRIQYIHGRSFIHRDIKPDNFLMGVGRRGSTVHVIDFGLSKKYRDFNTHRHIPYRENKSLTGTARYASVNTHLGIEQSRRDDLESLGYVLIYFCKGSLPWQGLKATTKKQKYDRIMEKKLNVSVETLCSGLPLEFQEYMAYCKNLKFDEKPDYLFLARLFKDLSIKLEYHNDHLFDWTMLRYTKAMVEKQRDLLIEKGDLNANSNAASASNSTDNKSETFNKIKLLAMKKFPTHFHYYKNEDKHNPSPEEIKQQTILNNNAASSLPEELLNALDKGMENLRQQQPQQQVQSSQPQPQPQQLQQQPNGQRPNYYPEPLLQQQQRDSQEQQQQVPMATTRATQYPPQINSNNFNTNQASVPPQMRSNPQQPPQDKPAGQSIWL [K38A], the “effect of a mutation on the interaction” value is reported as “disrupting interaction”.

Variants of B3 are the subject of another assay. The conditions noted are these: with trs33_yeast TRS33, Q99394.
In the case of S742D;T747E, the “effect of a mutation on the interaction” value is “decreasing interaction”.

Variants of B4 are the subject of another assay. The note with it: with sar1_yeast SAR1, P20606.
sar1_yeast SAR1, P20606, sequence (P20606 whole entry): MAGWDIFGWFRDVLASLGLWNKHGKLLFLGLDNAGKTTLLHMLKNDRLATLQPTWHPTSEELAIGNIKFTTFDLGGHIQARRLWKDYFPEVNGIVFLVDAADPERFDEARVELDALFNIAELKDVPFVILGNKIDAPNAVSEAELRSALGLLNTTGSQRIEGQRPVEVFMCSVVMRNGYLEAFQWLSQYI
With S742D, the “effect of a mutation on the interaction” value was “disrupting interaction”. Take T747E: the “effect of a mutation on the interaction” value is “disrupting interaction”.

Turning to S742D;T747E, the “effect of a mutation on the interaction” value is reported as “disrupting interaction”.
